From the DeepSol protein solubility set

Assay: soluble on expression in E. coli; label from the status in PepcDB or PDB records

| Sequence | soluble on expression in E. coli |
| --- | --- |
| MAFNTRANAEKYLATCYNFVPAAANLDHNSGLICGGEMWYLKPESHYYKNITSFNIARGMQNSNDPLLNYWDGGQGGYNIFRGIHECNIFIDNIDRVPDMRMEEKNKWKAEVMTLKAYYIYYLMLHYGPIPLLKENISVEADLDMMQLERETINDIVTYTTDLLDEAMNIPSGLTFNVTSPRTELGRITLPIAKAIKAKLLILAASPLFNGNTMYAEFVNSEGIPFFDQEYKKEKWEAAAAACLDAINTAHEAGASLYKFDEKLNYTPSSTLQQELTLRNTITGRFNSEIIWALGSNATDGIQNLCQAHLTSYSLGNRMIRSCSQLVPSLEIVEQFYTANGVPMDEDKDYEYENRYKLTTTPEDDPIHFTPNYTTIKMHLNREPRFYAYIGFDGGKWFSIECCNDNETSSYPIKSKKGDIAGVSDELYSPTGYFTKKLVSYQNVNTSATNINYVYSFPIIRLSDLYLLYAEALNELNETPTTDVYYYVQQVRNKAGLDEGGSLVNTWRNHSNRPDKPTTQRGMREIIQKERMIELAFEGHRYHDVRRWKLGSTYLNTQIKGWSVLEQDPEYFYNVRVLFTRKFMPRDYLWPIKTNSINRNPKLVQNPQW | not soluble |
| MGSDKIHHHHHHMNFIKEKHIEIVLNQTCLNPKLSVFLPVIKKTGVQLISVFHSQPYGMYGIKAFPKICNVFGVDKVGNLVDVLIHFAFKLKYGRYLKRMLQYSDKLVMLSDKFINEFLYFSGKKYAEKMLSISNPVTINGGGSEKKEKIVLFVGRISQEKGVDKILEVWRGICHEEKYKEWRLVIVGDGEKRKQMEKYAMDMELINYSFEGFQKPDGYYDKAKIFCMASAFEGFGLVLVEAMSYGVVPMAFNSFSNCSDIIDDDKNGILVTPFSINEYRKKIIELIENDEKWMKMSTCSINKSKEYSIECIGAKWLDLFYSLLNNKVT | not soluble |
| MDGVHDLAGVQGFGKVPHTVNADIGPTFHAEWEHLPYSLMFAGVAELGAFSVDEVRYVVERMEPRHYMMTPFYERYVIGVATLMVEKGILTQDELESLAGGPFPLSRPSESEGRPAPVETTTFEVGQRVRVRDEYVPGHIRMPAYCRGRVGTISHRTTEKWPFPDAIGHGRNDAGEEPTYHVKFAAEELFGSDTDGGSVVVDLFEGYLEPAA | soluble |
| MGSDKIHHHHHHMNYLRLNNITKRFGSFIANDNINLSVASGSIHAILGENGAGKSTLMNIISGLYQPDAGEIYLQEQPIKITSPNEAIKLGIGMIYQHFMLIPKLTVTENIILGIEKTWRLNLEDKQQKIAALSQAYGLEIDPTAKVENLSVGAQQRVEILKVLYRQAKLLILDEPTAVLTPPEVESLIAILRQLASAGNTIIFISHKLEEVMNLCDSVTVLRQGKVVATTSTEAATSQQLATLMVGREVALQLNKSPTLPGEIILSVQNLQVADERNILAVNNVSFELRAGEILGIAGVDGNGQRELADAIAFVRTIKQGKIEFTPKHSSVGYIPEDRQTMGLVLQFSIAQNLILKAFKYLPFCRRFLLQQEAIANRAQAAMQEFDIRASGKDILVSQLSGGNQQKVVLARELALTPALIIAMQPTRGLDVGATIAVQSRILTERDRGAAILYISTELEEVMAMSDRIAVIYRGEFVAILDAATAKVEEIGLLMAGGIN | not soluble |
| MKVLAIDTSNYVMGVSLIEEGNVIGEIITNLTKNHSVRLMPAVEQLLKECGVKPKELTKIVVAAGPGSYTGVRIGVTAAKTLAWSLQIPIVGVSSLEVVAANGANFNGLISPLFDGRRGQIYTGLYTYEGEDLTSIEEDRIILIVDWLQMLKDKGKPVLFIGNDVKLHKETIIEHLGDQAVFAPVTKNNPRPSELAFLGLQKEEQDVHSFVPSYLRLAEAETKWLESQNK | not soluble |
| PIFEEQPINTIYPEESLEGKVSLNCRARASPFPVYKWRMNNGDVDLTSDRYSMVGGNLVINNPDKQKDAGIYYCLASNNYGMVRSTEATLSFGYLDPFPPEERPEVRVKEGKGMVLLCDPPYHFPDDLSYRWLLNEFPVFITMDKRRFVSQTNGNLYIANVEASDKGNYSCFVSSPSITKSVFSKFIPLIPIPERTTKPYPADIVVQFKDVYALMGQNVTLECFALGNPVPDIRWRKVLEPMPSTAEISTSGAVLKIFNIQLEDEGIYECEAENIRGKDKHQARIYVQAFPEWVEHINDTEVDIGSDLYWPCVATGKPIPTIRWLKNGYAYHKGELRLYDVTFENAGMYQCIAENTYGAIYANAELKILALAPTFEMNPMKKKILAAKGGRVIIECKPKAAPKPKFSWSKGTEWLVNSSRILIWEDGSLEINNITRNDGGIYTCFAENNRGKANSTGTLVITDPTRIILAPINADITVGENATMQCAASFDPALDLTFVWSFNGYVIDFNKENIHYQRNFMLDSNGELLIRNAQLKHAGRYTCTAQTIVDNSSASADLVVRGPPGPPGGLRIEDIRATSVALTWSRGSDNHSPISKYTIQTKTILSDDWKDAKTDPPIIEGNMEAARAVDLIPWMEYEFRVVATNTLGRGEPSIPSNRIKTDGAAPNVAPSDVGGGGGRNRELTITWAPLSREYHYGNNFGYIVAFKPFDGEEWKKVTVTNPDTGRYVHKDETMSPSTAFQVKVKAFNNKGDGPYSLVAVINSAQDAPSEAPTEVGVKVLSSSEISVHWEHVLEKIVESYQIRYWAAHDKEEAANRVQVTSQEYSARLENLLPDTQYFIEVGACNSAGCGPPSDMIEAFTKKAPPSQPPRIISSVRSGSRYIITWDHVVALSNESTVTGYKVLYRPDGQHDGKLYSTHKHSIEVPIPRDGEYVVEVRAHSDGGDGVVSQVKISGAPTLSPSLLGLLLPAFGILVYLEF | soluble |
| METTSVFRADFLSELDAPAQAGTESAVSGVEGLPPGSALLVVKRGPNAGSRFLLDQAITSAGRHPDSDIFLDDVTVSRRHAEFRLENNEFNVVDVGSLNGTYVNREPVDSAVLANGDEVQIGKFRLVFLTGPKQGEDLEHHHHHH | not soluble |
| MPIAQLLELWKKIEVEPMEIETTEEDLNLDVGPATEDTAEEGKSDSAACKTKVAGSVEEEGVVKEIDISHHVKEGFEKADPSQFELLKVLGQGSYGKVFLVRKVKGSDAGQLYAMKVLKKATLKVRDRVRSKMERDILAEVNHPFIVKLHYAFQTEGKLYLILDFLRGGDLFTRLSKEVMFTEEDVKFYLAELALALDHLHSLGIIYRDLKPENILLDEEGHIKITDFGLSKEAIDHDKRAYSFCGTIEYMAPEVVNRRGHTQSADWWSFGVLMFEMLTGSLPFQGKDRKETMALILKAKLGMPQFLSGEAQSLLRALFKRNPCNRLGAGIDGVEEIKRHPFFVTIDWNTLYRKEIKPPFKPAVGRPEDTFHFDPEFTARTPTDSPGVPPSANAHHLFRGFSFVASSLIQEPSQQDLHKVPVHPIVQQLHGNNIHFTDGYEIKEDIGVGSYSVCKRCVHKATDTEYAVKIIDKSKRDPSEEIEILLRYGQHPNIITLKDVYDDGKFVYLVMELMRGGELLDRILRQRYFSEREASDVLCTITKTMDYLHSQGVVHRDLKPSNILYRDESGSPESIRVCDFGFAKQLRAGNGLLMTPCYTANFVAPEVLKRQGYDAACDIWSLGILLYTMLAGFTPFANGPDDTPEEILARIGSGKYALSGGNWDSISDAAKDVVSKMLHVDPHQRLTAMQVLKHPWVVNREYLSPNQLSRQDVHLVKGAMAATYFALNRTPQAPRLEPVLSSNLAQRRGMKRLTSTRL | soluble |
| MGSDKIHHHHHHMFLSELYRYPVKSGQAQSLKASPVGLLGLQGDRRWMVVEEENGRFLTQRAWPQLGQIDASDDDSGQLLLQAPGQAPLRVPVPPADDALRGVTIWRDTLRVPDAGDAAAAWLSELLGKAVRLVHCPEQRARYLPNGYGLNSDRAAFPDGFPLLLIGQGSLDELNRRIGRPMSMRRFRPNLVVQGAEPFAEDGWKRIRIGSLVFRVLKPSVRCIFTTIDPVTGERSADREPMATLKTFREKEGDVLFGQNLAVDGSGWLEVGMEVEILE | not soluble |
| MMRGGMGNMQKMLKQMQKMQKEMQKAQEELAEKTVEGTAGGGMVTVVANGHKQILEVKIKEEVVDPDDIEMLQDLILAATNDALKKADELANEMMGQFTKGLNIPGLF | not soluble |
| MLSDIQHDQFGFIKGCIISVIWLSLSRTLNRDQLNLDRFEFWQPTSQLLVLDVCLFDAFALEHHHHHH | not soluble |
| MSLGIYMRDDILDIITLTTDFGTNEGYVGAMKGRILNILKKYNKDAKIIDISHEIKPFNIYHGAYVLLTAIPYFPPSVHVAVIDPTVGSERKSIVIETKSGYYLVGPDNGLFTYVAEKLGIKRIIKIDEERYKPSSTFHGRDVYAVVGAEILINNGYDGEELDEMVKIDETKKRVIHIDRFGNIITNIKKDEVTFKYYDTIMIKIRHKNGIEKIIKCKFVKSYFEEKNNFICLINSEGFLEISKFMDNASKLLNVDYLDEIEIEGGSHHHHHH | soluble |
| MSRQCTHYGRWPQHGFTSLKKLRPQSVTSRIQPGSDVIVCAEMDEHWGYVGAKSRQRWLFYAYDRIRRTVVAHVFGERTLATLERLLSLLSAFEVVVWMTDGWPLYESRLKGKLHVISKRYTQRIERHNLNLRQHLARLVRKSLSFSKSVELHDKVIGHYLNIKHYQLEHHHHHH | not soluble |
| SPGQGTQSENSCTHFPGNLPNMLRDLRDAFSRVKTFFQMKDQLDNLLLKESLLEDFKGYLGCQALSEMIQFYLEEVMPQAENQDPDIKAHVNSLGENLKTLRLRLRRCHRFLPCENKSKAVEQVKNAFNKLQEKGIYKAMSEFDIFINYIEAYMTMKIRN | soluble |
| GMQYATLELNNAFKVLFSLRQVQAAEMVIAPGDREGGPDNRHRGADQWLFVVDGAGEAIVDGHTQALQAGSLIAIERGQAHEIRNTGDTPLKTVNFYHPPAYDAQGEPLPAGEG | soluble |
| MEEPINVLLLGMDIGDTSDVSNKDAKRTDTIILANFDPITKEAKLISIPRDTRVKIGGKSQKINAAYPIGGEKLVKQLVGNILGVKVDYVVKVDYEGFRGIIDAIGGIDMYIEQDMNYDDPGQDLHIHFNKGETVHLDGKKAEEFFRWRKNNDGTGLVNGDVDRIKNQQKFINAVIDKVLSVSTITKIDSIAEILNKNIETNIPLDVTVAYGLKGLETDKNNIKMMTLPGEGKYVGNVSYYIPDEKATKELRSQLNSSNLSGRKNVIPSAARGDLSIKVLNCTKINGLAANVQKQLNENGYDKVDVGNGDPREKSEILIKDESSRAFMENDLKIENIKKGISSKYDGNGTYDVVILLGKDFKNFGEMKLEHHHHHH | soluble |
| MALSKTIATVTRRICERSAPTREIYLDRIAKAQANHPKRSFLGCANQAHGFAACGSIDKKRLKRNIVGNIGIITAYNDILSAHQPFESFPHLIKETARMFGGVAQVAGGVPAMCDGVTQGNTGMELSLFSRDVIAMATAIGLSHDMFDAALYLGVCDKIVPGLVIGALTFGHLPGIFVPAGPMTSGQGNDEKAKIRQLYAENKIDRQTLLESEARSYHGPGTCTFYGTANSNQVILEMMGLHMPGSSFINANTPLRDALTKEATKRVLEMIALGDSYSPIGLIVDERSFVNAVVGLNATGGSTNHAIHLIAMAAAAGILLTWHDIAEISSVVPLLARIYPNGLADINHFHAAGGMGFVIRELIEAGLVHEDVCTVFGKDLNAYAIEAKLCNDDNVVREPALNESANHKVLTGWRKPFQSDGGIRILLGDLGTAIMKVSSVKSEYWRIEAPVLVFNDQEELQEAFKAGVLNDKDFIAVIRYQGPKANGMPELHKLTTILGVLQDRGQKVALVTDGRMSGASGKIPAAIHVTPEALDDGPIARLQNGDVVCLDAHVGKLAILEDKVEFNARKITLPDLSKNEYGVGRELFRIFRHSVNRADQGASVLIA | not soluble |
